{"source": "paper PMC2175344", "assay_in_all_cases": "fluorescence anisotropy", "key": {"APOBEC3G (A3G)": {"molecular_target": "APOBEC3G (A3G) (Homo sapiens, UniProt Q9HC16 1-384)", "sequence (Q9HC16 whole entry)": "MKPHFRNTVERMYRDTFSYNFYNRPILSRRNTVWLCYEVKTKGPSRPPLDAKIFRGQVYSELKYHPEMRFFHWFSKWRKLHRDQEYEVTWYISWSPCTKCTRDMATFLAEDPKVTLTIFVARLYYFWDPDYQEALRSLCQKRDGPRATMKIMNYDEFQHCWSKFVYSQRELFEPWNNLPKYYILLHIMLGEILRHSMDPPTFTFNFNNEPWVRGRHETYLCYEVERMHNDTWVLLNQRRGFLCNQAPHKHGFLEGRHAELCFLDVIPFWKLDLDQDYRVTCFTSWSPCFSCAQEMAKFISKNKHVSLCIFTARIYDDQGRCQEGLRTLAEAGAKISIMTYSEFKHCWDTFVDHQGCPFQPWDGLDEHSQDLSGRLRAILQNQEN"}, "[1]": {"molecular_target": "HIV-1 reverse transcriptase (RT) (HIV-1, UniProt P04585;P04585 588-1147;588-1027)"}, "[2]": {"molecular_target": "HIV-1 nucleocapsid protein (NC) (HIV-1, UniProt P12493 378-432)"}}, "data": [{"binder": "CTTCTTTGGGAGTGAATTAG (ssDNA)", "note": "[5'-FAM-JL587D 20-mer]", "values": [{"measurement": "Kd", "setting": "APOBEC3G (A3G)", "value": "238 ± 95", "unit": "nM"}, {"measurement": "Kd", "setting": "[1]", "value": "1840 ± 390", "unit": "nM"}, {"measurement": "Kd", "setting": "[2]", "value": "84.1 ± 7.8", "unit": "nM"}]}]}
